The values below are quoted from earlier work in PMC8393563.

The target of the data set is PGRMC1 (Homo sapiens) (UniProt O00264).

In general, Kd refers to a measure of binding affinity in units of concentration. With PGRMC1 (from UniProt O00264), the equilibrium dissociation constant (Kd) is below 3.5 µM.
